Reference: patent publication US20230114801A1 (SYSTIMMUNE, published 2023)

B1: SI-75P3 (other)
chain 1: EIVLTQSPSTLSVSPGERATFSCRASQSIGTNIHWYQQKPGKPPRLLIKYASESISGIPDRFSGSGSGTEFTLTISSVQSEDFAVYYCQQNNNWPTTFGPGTKLTVLGGGGSGGGGSGGGGSGGGGSQVQLQQSGPGLVKPSETLSITCTVSGFSLTNYGVHWIRQAPGKGLEWLGVIWSGGNTDYNTPFTSRFTITKDNSKNQVYFKLRSVRADDTAIYYCARALTYYDYEFAYWGQGTLVTVSSGGGGSGGGGSEVQLVESGGGLVQPGGSLRLSCAASGFTISTNAMSWVRQAPGKGLEWIGVITGRDITYYASWAKGRFTISRDNSKNTLYLQMNSLRAEDTAVYYCARDGGSSAITSNNIWGQGTLVTVSSASTKGPSVFPLAPSSKSTSGGTAALGCLVKDYFPEPVTVSWNSGALTSGVHTFPAVLQSSGLYSLSSVVTVPSSSLGTQTYICNVNHKPSNTKVDKRVEPKSCDKTHTCPPCPAPEAAGGPSVFLFPPKPKDTLMISRTPEVTCVVVDVSHEDPEVKFNWYVDGVEVHNAKTKPREEQYNSTYRVVSVLTVLHQDWLNGKEYKCAVSNKALPAPIEKTISKAKGQPREPQVYTLPPSRDELTKNQVSLSCAVKGFYPSDIAVEWESNGQPENNYKTTPPVLDSDGSFFLVSKLTVDKSRWQQGNVFSCSVMHEALHNHYTQKSLSLSPGGGGGSGGGGSDVVMTQSPSSVSASVGDRVTITCQASQNIRTYLSWYQQKPGKAPKLLIYAAANLASGVPSRFSGSGSGTDFTLTISDLEPGDAATYYCQSTYLGTDYVGGAFGGGTKLTVLGGGGSGGGGSGGGGSGGGGSEVQLVESGGGLVQPGGSLRLSCTASGFTISSYHMQWVRQAPGKGLEYIGTISSGGNVYYASSARGRFTISRPSSKNTVDLQMNSLRAEDTAVYYCARDSGYSDPMWGQGTLVTVSS
chain 2: QSALTQPASVSGSPGQSITISCTGTSSDVGGYNFVSWYQQHPGKAPKLMIYDVSDRPSGVSDRFSGSKSGNTASLIISGLQADDEADYYCSSYGSSSTHVIFGGGTKVTVLGGGGSGGGGSGGGGSGGGGSQVQLQESGGGLVKPGGSLSLSCAASGFTFSSYWMSWVRQAPGKGLEWVANINRDGSASYYVDSVKGRFTISRDDAKNSLYLQMNSLRAEDTAVYYCARDRGVGYFDLWGRGTLVTVSSGGGGSGGGGSDVVMTQSPSTLSASVGDRVTINCQASESISSWLAWYQQKPGKAPKLLIYEASKLASGVPSRFSGSGSGTEFTLTISSLQPDDFATYYCQGYFYFISRTYVNSFGGGTKVEIKRTVAAPSVFIFPPSDEQLKSGTASVVCLLNNFYPREAKVQWKVDNALQSGNSQESVTEQDSKDSTYSLSSTLTLSKADYEKHKVYACEVTHQGLSSPVTKSFNRGECGGDKTHTCPPCPAPEAAGGPSVFLFPPKPKDTLMISRTPEVTCVVVDVSHEDPEVKFNWYVDGVEVHNAKTKPREEQYNSTYRVVSVLTVLHQDWLNGKEYKCAVSNKALPAPIEKTISKAKGQPREPQVYTLPPSRDELTKNQVSLWCLVKGFYPSDIAVEWESNGQPENNYKTTPPVLDSDGSFFLYSKLTVDKSRWQQGNVFSCSVMHEALHNRFTQKSLSLSPGGGGGSGGGGSDIQMTQSPSTLSASVGDRVTITCQASQSISSHLNWYQQKPGKAPKLLIYKASTLASGVPSRFSGSGSGTEFTLTISSLQPDDFATYYCQQGYSWGNVDNVFGGGTKVTVLGGGGSGGGGSGGGGSGGGGSEVQLLESGGGLVQPGGSLSLSCAASGFSFSSGYDMCWVRQAPGKGLEWIACIAAGSAGITYDANWAKGRFTISRDNSKNTLYLQMNSLRAEDTAVYYCARSAFSFDYAMDLWGQGTLVTVSS
notes: penta-miniGNC; D1 αEGFR, D2 αHER3, D3 αCD3 (Fab), D4 α4-1BB, D5 αPD-L1
B2: SI-75P9 (other)
chain 1: EIVLTQSPSTLSVSPGERATFSCRASQSIGTNIHWYQQKPGKPPRLLIKYASESISGIPDRFSGSGSGTEFTLTISSVQSEDFAVYYCQQNNNWPTTFGPGTKLTVLGGGGSGGGGSGGGGSGGGGSQVQLQQSGPGLVKPSETLSITCTVSGFSLTNYGVHWIRQAPGKGLEWLGVIWSGGNTDYNTPFTSRFTITKDNSKNQVYFKLRSVRADDTAIYYCARALTYYDYEFAYWGQGTLVTVSSGGGGSGGGGSQVQLQESGGGLVKPGGSLRLSCAASGFTFSSYWMSWVRQAPGKGLEWVANINRDGSASYYVDSVKGRFTISRDDAKNSLYLQMNSLRAEDTAVYYCARDRGVGYFDLWGRGTLVTVSSASTKGPSVFPLAPSSKSTSGGTAALGCLVKDYFPEPVTVSWNSGALTSGVHTFPAVLQSSGLYSLSSVVTVPSSSLGTQTYICNVNHKPSNTKVDKRVEPKSCDKTHTCPPCPAPEAAGGPSVFLFPPKPKDTLMISRTPEVTCVVVDVSHEDPEVKFNWYVDGVEVHNAKTKPREEQYNSTYRVVSVLTVLHQDWLNGKEYKCAVSNKALPAPIEKTISKAKGQPREPQVYTLPPSRDELTKNQVSLSCAVKGFYPSDIAVEWESNGQPENNYKTTPPVLDSDGSFFLVSKLTVDKSRWQQGNVFSCSVMHEALHNHYTQKSLSLSPGGGGGSGGGGSDVVMTQSPSSVSASVGDRVTITCQASQNIRTYLSWYQQKPGKAPKLLIYAAANLASGVPSRFSGSGSGTDFTLTISDLEPGDAATYYCQSTYLGTDYVGGAFGGGTKLTVLGGGGSGGGGSGGGGSGGGGSEVQLVESGGGLVQPGGSLRLSCTASGFTISSYHMQWVRQAPGKGLEYIGTISSGGNVYYASSARGRFTISRPSSKNTVDLQMNSLRAEDTAVYYCARDSGYSDPMWGQGTLVTVSS
chain 2: DVVMTQSPSTLSASVGDRVTINCQASESISSWLAWYQQKPGKAPKLLIYEASKLASGVPSRFSGSGSGTEFTLTISSLQPDDFATYYCQGYFYFISRTYVNSFGGGTKVEIKGGGGSGGGGSGGGGSGGGGSEVQLVESGGGLVQPGGSLRLSCAASGFTISTNAMSWVRQAPGKGLEWIGVITGRDITYYASWAKGRFTISRDNSKNTLYLQMNSLRAEDTAVYYCARDGGSSAITSNNIWGQGTLVTVSSGGGGSGGGGSQSALTQPASVSGSPGQSITISCTGTSSDVGGYNFVSWYQQHPGKAPKLMIYDVSDRPSGVSDRFSGSKSGNTASLIISGLQADDEADYYCSSYGSSSTHVIFGGGTKVTVLRTPKANPTVTLFPPSSEELQANKATLVCLISDFYPGAVTVAWKADGSPVKAGVETTKPSKQSNNKYAASSYLSLTPEQWKSHRSYSCQVTHEGSTVEKTVAPTECSGGDKTHTCPPCPAPEAAGGPSVFLFPPKPKDTLMISRTPEVTCVVVDVSHEDPEVKFNWYVDGVEVHNAKTKPREEQYNSTYRVVSVLTVLHQDWLNGKEYKCAVSNKALPAPIEKTISKAKGQPREPQVYTLPPSRDELTKNQVSLWCLVKGFYPSDIAVEWESNGQPENNYKTTPPVLDSDGSFFLYSKLTVDKSRWQQGNVFSCSVMHEALHNRFTQKSLSLSPGGGGGSGGGGSDIQMTQSPSTLSASVGDRVTITCQASQSISSHLNWYQQKPGKAPKLLIYKASTLASGVPSRFSGSGSGTEFTLTISSLQPDDFATYYCQQGYSWGNVDNVFGGGTKVTVLGGGGSGGGGSGGGGSGGGGSEVQLLESGGGLVQPGGSLSLSCAASGFSFSSGYDMCWVRQAPGKGLEWIACIAAGSAGITYDANWAKGRFTISRDNSKNTLYLQMNSLRAEDTAVYYCARSAFSFDYAMDLWGQGTLVTVSS
notes: penta-miniGNC; D1 αEGFR, D2 αCD3, D3 αHER3 (Fab), D4 α4-1BB, D5 αPD-L1

Columns and labels:
Assay in all cases: BLI (Octet), binder on AHC sensor, 100 nM human antigen, 1:1 fit
human CD3 = target: T1, human CD3 (human, UniProt P07766 23-126; P04234 22-105)
T1 construct: also called His-tagged human CD3; human CD3 (Acro CDD-H52W1)

human EGFR = target: T2, human EGFR (human, UniProt P00533 25-645, limits assumed)
T2 construct: Soluble antigen in Octet; construct not described

human 4-1BB = target: T3, human 4-1BB (human, UniProt Q07011 24-186, limits assumed)
T3 construct: Soluble antigen in Octet; construct not described

human PD-L1 = target: T4, human PD-L1 (human, UniProt Q9NZQ7 19-238)
T4 construct: Soluble antigen in Octet; bought; also called human PD-L1 (Acro PD1-H5229)

Row | Binder | Kd (human CD3) | Kd (human EGFR) | Kd (human 4-1BB) | Kd (human PD-L1)
1 | B1 | 17.4 nM | 8.91 nM | 7.51 nM | 1 nM
2 | B2 | 20.1 nM | 11.1 nM | 21.2 nM | 2.7 nM
